Measurements: paper PMC6526471

Biological target: Patched (Ptc) receptor on C3H10T1/2 cells (mouse (endogenous in C3H10T1/2)) (UniProt Q61115)
Chain of UniProt Q61115 (Q61115 whole entry): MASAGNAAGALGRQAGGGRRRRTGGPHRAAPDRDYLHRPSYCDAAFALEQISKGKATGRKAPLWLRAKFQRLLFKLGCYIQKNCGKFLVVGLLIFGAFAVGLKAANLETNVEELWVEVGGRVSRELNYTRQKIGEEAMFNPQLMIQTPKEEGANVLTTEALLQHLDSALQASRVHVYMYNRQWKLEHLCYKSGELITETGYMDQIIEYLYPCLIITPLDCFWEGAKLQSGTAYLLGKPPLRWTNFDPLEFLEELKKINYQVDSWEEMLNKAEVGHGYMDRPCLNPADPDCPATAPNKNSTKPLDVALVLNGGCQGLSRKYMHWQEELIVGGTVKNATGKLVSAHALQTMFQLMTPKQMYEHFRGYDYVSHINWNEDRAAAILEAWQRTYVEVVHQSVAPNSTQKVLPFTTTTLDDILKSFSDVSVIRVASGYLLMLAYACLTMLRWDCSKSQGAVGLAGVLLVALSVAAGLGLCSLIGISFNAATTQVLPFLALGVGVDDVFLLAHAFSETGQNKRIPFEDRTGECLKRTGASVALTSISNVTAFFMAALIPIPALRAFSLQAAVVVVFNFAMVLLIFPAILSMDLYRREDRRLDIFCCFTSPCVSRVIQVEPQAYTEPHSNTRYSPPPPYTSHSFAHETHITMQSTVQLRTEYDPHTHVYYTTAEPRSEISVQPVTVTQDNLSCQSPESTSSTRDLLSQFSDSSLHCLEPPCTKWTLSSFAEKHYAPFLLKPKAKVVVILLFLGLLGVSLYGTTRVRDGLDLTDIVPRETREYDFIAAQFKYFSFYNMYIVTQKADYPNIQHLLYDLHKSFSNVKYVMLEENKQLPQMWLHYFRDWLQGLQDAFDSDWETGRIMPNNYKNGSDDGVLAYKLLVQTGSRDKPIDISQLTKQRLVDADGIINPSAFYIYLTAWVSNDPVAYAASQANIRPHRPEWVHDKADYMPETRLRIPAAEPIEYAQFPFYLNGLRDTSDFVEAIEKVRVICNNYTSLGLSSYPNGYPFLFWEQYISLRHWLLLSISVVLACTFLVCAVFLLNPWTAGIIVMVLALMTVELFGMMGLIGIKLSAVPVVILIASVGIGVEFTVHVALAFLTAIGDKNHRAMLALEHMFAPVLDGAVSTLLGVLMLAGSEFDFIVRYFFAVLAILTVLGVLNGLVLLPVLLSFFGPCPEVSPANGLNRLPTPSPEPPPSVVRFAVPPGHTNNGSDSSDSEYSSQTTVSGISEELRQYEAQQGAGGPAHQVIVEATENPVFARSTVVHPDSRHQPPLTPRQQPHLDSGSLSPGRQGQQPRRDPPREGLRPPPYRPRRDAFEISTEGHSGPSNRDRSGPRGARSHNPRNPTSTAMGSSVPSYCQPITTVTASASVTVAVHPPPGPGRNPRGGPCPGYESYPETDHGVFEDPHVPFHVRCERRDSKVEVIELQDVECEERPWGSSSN

Shh-induced C3H10T1/2 differentiation with 5 ug/mL HSI (0.7 sulfates/disaccharide), relative to no HS/heparin (100%): 70%
Shh-induced C3H10T1/2 differentiation with 5 ug/mL HSII (1.2 sulfates/disaccharide), relative to no HS/heparin (100%): 58%
Shh-induced C3H10T1/2 differentiation with 5 ug/mL HSIII (1.4 sulfates/disaccharide), relative to no HS/heparin (100%): 38%
Shh-induced C3H10T1/2 differentiation with 5 ug/mL dp30 heparin, relative to no HS/heparin (100%): 26%
Shh-induced C3H10T1/2 differentiation with 5 ug/mL heparin, relative to no HS/heparin (100%): 27%
Substance: Sonic hedgehog (Shh), soluble form released from Shh-expressing Panc1 cells (ligand)
